The values below come from the RNAGym collection of RNA variant scans (doi:10.7554/elife.90254).

To fix the notation:
B1: OR4K15 (parent)
chain: GUUAACGGUCAUAGGCCAUGGAAACUAGGAGCACCAUUUCGCUGCCAGUGAAGAAAUGAACAAAGAAAAUCUGGGCCAGGCAGGCAUCAAAAGAAAUAGUCUUGCGCUCAACCAGAAAGUCUGUAAUCAUUUUAAGGGUA

Variants of B1 are the subject of this data set. Description: self-cleavage, relative activity (ratio to wild type); higher = more cleavage; in vitro, sequencing; the parent is a self-cleaving ribozyme.
For the variant GUUAACGGUCAUAGGCCAUGGAAACUAGGAGCACCAUUUCGCUGCCAGUGAAGAAAUGAACAGAGAAAAUCUGGGCCAGGCAGGCAUCAGAAGAAAUAGUCUUGCGCUCAACCAGAAAGUCUGUAAUCAUUUUAAGGGUA [A63G A90G], the self-cleavage came out at 1.6.

For GUUAACGGUCAUAGGCCAUGGAAACUAGGAGCACCAUUUCGCUGCCAGUGAAGAAAUGAACUAAGAAAAUCUGGGCCAGGCAGGCAUCAAAAGAAAUAGUCUUACGCUCAACCAGAAAGUCUGUAAUCAUUUUAAGGGUA [A62U G104A], the self-cleavage was found to be 0.04.

Turning to GUUAACGGUCAUAGGCCAUGGAAACUAGGAGCACCAUUUCGCUGCCAGUGAAGAAAUGAACACAGAAAAUCUGGGCCAAGCAGGCAUCAAAAGAAAUAGUCUUGCGCUCAACCAGAAAGUCUGUAAUCAUUUUAAGGGUA [A63C G79A], the self-cleavage was 0.09.

For GUUAACGGUCAUAGGCCAUGGAAACUAGGAGCACCAUUUCGCUGCCAGUGAAGAAAUGAACUAAGAAAAUCUGGGCCAGGCAGGCAUCAAAAGAAAUAGUCUUGCGCUCAACCAGAAAGUCUGUAAUCAUCUUAAGGGUA [A62U U131C], the self-cleavage worked out at 1.2.

As for GUUAACGGUCAUAGGCCAUGGAAACUAGGAGCACCAUUUCGCUGCCAGUGAAGAAAUGAACUAAGAAAAUCUGGGCCAGGCAGGCAUCAAAAGAAAUAGUCUUGCGCACAACCAGAAAGUCUGUAAUCAUUUUAAGGGUA [A62U U108A], the self-cleavage was 0.02.

Turning to GUUAACGGUCAUAGGCCAUGGAAACUAGGAGCACCAUUUCGCUGCCAGUGAAGAAAUGAACUAAGAAAAUCUGGGCCAGGCAGGCAUCAAAAGAAAUAGUCUUGCGCUCAACCAGAAAGUCUGUAAUCAUUCUAAGGGUA [A62U U132C], the self-cleavage came out at 1.48.

GUUAACGGUCAUAGGCCAUGGAAACUAGGAGCACCAUUUCGCUGCCAGUGAAGAAAUGAACUAAGAAAAUCUGGGCCAGGCAGGCAUCAAAAGAAAUAGUCUUGCGCUCAACCAGAAAGUCUGUAAUCAUUUUAAGGGAA [A62U U139A]: the self-cleavage was 1.78.

With GUUAACGGUCAUAGGCCAUGGAAACUAGGAGCACCAUUUCGCUGCCAGUGAAGAAAUGAACUAAGAAAAUCUGGGCCAGGCAGGCAUCAAAAGAAAUAGUCUUGCGCUCAACCAGAAAGUCUGUAAUCAUUUUAAGGGCA [A62U U139C], the self-cleavage is 1.82.

Consider GUUAACGGUCAUAGGCCAUGGAAACUAGGAGCACCAUUUCGCUGCCAGUGAAGAAAUGAACAGAGAAAAUCUGGGCCAGGCAGGCUUCAAAAGAAAUAGUCUUGCGCUCAACCAGAAAGUCUGUAAUCAUUUUAAGGGUA [A63G A86U], for which the self-cleavage was found to be 2.04.

Take GUUAACGGUCAUAGGCCAUGGAAACUAGGAGCACCAUUUCGCUGCCAGUGAAGAAAUGAACAGAGAAAGUCUGGGCCAGGCAGGCAUCAAAAGAAAUAGUCUUGCGCUCAACCAGAAAGUCUGUAAUCAUUUUAAGGGUA [A63G A69G]: the self-cleavage was determined as 1.04.

GUUAACGGUCAUAGGCCAUGGAAACUAGGAGCACCAUUUCGCUGCCAGUGAAGAAAUGAACAGAGAAAAUCUGGGCCAGGCAGGCAUCAAAAGAAAUAGUCUUGCGCUCAACCAGAAAGUCUGUAAUCAUUUUAAGGGUA [A63G]: the self-cleavage is 1.41.

As for GUUAACGGUCAUAGGCCAUGGAAACUAGGAGCACCAUUUCGCUGCCAGUGAAGAAAUGAACACAGAAAAUCUGGGCCAGGCAGGCAUCAAAAGAAAUAGUCUUGCGCUCAACCAGAAAGUCUGUAAUCAUUUUAAGGGUA [A63C], the self-cleavage is 1.81.

On to GUUAACGGUCAUAGGCCAUGGAAACUAGGAGCACCAUUUCGCUGCCAGUGAAGAAAUGAACAGAGUAAAUCUGGGCCAGGCAGGCAUCAAAAGAAAUAGUCUUGCGCUCAACCAGAAAGUCUGUAAUCAUUUUAAGGGUA [A63G A66U], for which the self-cleavage amounted to 1.49.

GUUAACGGUCAUAGGCCAUGGAAACUAGGAGCACCAUUUCGCUGCCAGUGAAGAAAUGAACUAAGAAAAUCUGGGCCAGGCAGGCAUCAAAAGAAAUAAUCUUGCGCUCAACCAGAAAGUCUGUAAUCAUUUUAAGGGUA [A62U G99A]: the self-cleavage was 0.62.

Take GUUAACGGUCAUAGGCCAUGGAAACUAGGAGCACCAUUUCGCUGCCAGUGAAGAAAUGAACUAAGAAAAUCUGGGCCAGGCAGGCAUCAAAAGAAAUAGUCAUGCGCUCAACCAGAAAGUCUGUAAUCAUUUUAAGGGUA [A62U U102A]: the self-cleavage came out at 0.57.

For the variant GUUAACGGUCAUAGGCCAUGGAAACUAGGAGCACCAUUUCGCUGCCAGUGAAGAAAUGAACACAGAAAAUCUGGGCCAGGCAGGCAUCAAAAGAAAUAGUCUUGCGCUCAACCAGAAAGUCUGUAUUCAUUUUAAGGGUA [A63C A126U], the self-cleavage worked out at 1.62.

For GUUAACGGUCAUAGGCCAUGGAAACUAGGAGCACCAUUUCGCUGCCAGUGAAGAAAUGAACACAGAAAAUCUGGGCCAGGCAGGCAUCAAAAGAAAUAGUCUUGCGCUCAACCAGAAAGUCUGUAGUCAUUUUAAGGGUA [A63C A126G], the self-cleavage was found to be 0.99.

Regarding GUUAACGGUCAUAGGCCAUGGAAACUAGGAGCACCAUUUCGCUGCCAGUGAAGAAAUGAACACAGAAAAUCUGUGCCAGGCAGGCAUCAAAAGAAAUAGUCUUGCGCUCAACCAGAAAGUCUGUAAUCAUUUUAAGGGUA [A63C G74U], the self-cleavage is 0.15.

Turning to GUUAACGGUCAUAGGCCAUGGAAACUAGGAGCACCAUUUCGCUGCCAGUGAAGAAAUGAACAGAGAAAAUCUGGGCCAGGCAGGCAUCAAAUGAAAUAGUCUUGCGCUCAACCAGAAAGUCUGUAAUCAUUUUAAGGGUA [A63G A92U], the self-cleavage was 1.35.

GUUAACGGUCAUAGGCCAUGGAAACUAGGAGCACCAUUUCGCUGCCAGUGAAGAAAUGAACUAAGAAAAUCUGGGCCAGGCAGGCAUCAAAAGAAAUAGCCUUGCGCUCAACCAGAAAGUCUGUAAUCAUUUUAAGGGUA [A62U U100C]: the self-cleavage was determined as 2.34.

GUUAACGGUCAUAGGCCAUGGAAACUAGGAGCACCAUUUCGCUGCCAGUGAAGAAAUGAACAGAGAAAAUCUGGGCCAGGCAGGCAUCAAUAGAAAUAGUCUUGCGCUCAACCAGAAAGUCUGUAAUCAUUUUAAGGGUA [A63G A91U]: the self-cleavage was 2.36.

On to GUUAACGGUCAUAGGCCAUGGAAACUAGGAGCACCAUUUCGCUGCCAGUGAAGAAAUGAACUAAGAAAAUCUGGGCCAGGCAGCCAUCAAAAGAAAUAGUCUUGCGCUCAACCAGAAAGUCUGUAAUCAUUUUAAGGGUA [A62U G84C], for which the self-cleavage came out at 0.25.

In the case of GUUAACGGUCAUAGGCCAUGGAAACUAGGAGCACCAUUUCGCUGCCAGUGAAGAAAUGAACUAAGAAAAUCUGAGCCAGGCAGGCAUCAAAAGAAAUAGUCUUGCGCUCAACCAGAAAGUCUGUAAUCAUUUUAAGGGUA [A62U G74A], the self-cleavage was found to be 0.41.

For the variant GUUAACGGUCAUAGGCCAUGGAAACUAGGAGCACCAUUUCGCUGCCAGUGAAGAAAUGAACUAAGAAAAUCUGGGCCAGGCAGGCAUCAAAAGAAAUAGUCUUGCGCUCAACCAGAAAGCCUGUAAUCAUUUUAAGGGUA [A62U U120C], the self-cleavage came out at 1.

For the variant GUUAACGGUCAUAGGCCAUGGAAACUAGGAGCACCAUUUCGCUGCCAGUGAAGAAAUGAACUAAGAAAAUCUGGGCCAGGCAGGCAUCAAAAGAAAUAGUCUUGCGCUCAACCAGAAAGACUGUAAUCAUUUUAAGGGUA [A62U U120A], the self-cleavage came out at 2.24.

Consider GUUAACGGUCAUAGGCCAUGGAAACUAGGAGCACCAUUUCGCUGCCAGUGAAGAAAUGAACACAGAAAAUCUGGGCCAGGCAGGCAUCAAAAGAAAUAGUCUUGCGCUCAACCAGAAAGUCUGUAAUCAUCUUAAGGGUA [A63C U131C], for which the self-cleavage was 1.99.

In the case of GUUAACGGUCAUAGGCCAUGGAAACUAGGAGCACCAUUUCGCUGCCAGUGAAGAAAUGAACUAAGAAAAUCUUGGCCAGGCAGGCAUCAAAAGAAAUAGUCUUGCGCUCAACCAGAAAGUCUGUAAUCAUUUUAAGGGUA [A62U G73U], the self-cleavage is 0.17.

On to GUUAACGGUCAUAGGCCAUGGAAACUAGGAGCACCAUUUCGCUGCCAGUGAAGAAAUGAACUAAGAAAAUCUGGGCCAGGCAGGCAUCAAAAGAAAUAGUCUUGCGCUCAACCAGAAGGUCUGUAAUCAUUUUAAGGGUA [A62U A118G], for which the self-cleavage is 1.9.

On to GUUAACGGUCAUAGGCCAUGGAAACUAGGAGCACCAUUUCGCUGCCAGUGAAGAAAUGAACAGAGAAAAUCUGGGCCAGGCAGGCAUCAAAAGUAAUAGUCUUGCGCUCAACCAGAAAGUCUGUAAUCAUUUUAAGGGUA [A63G A94U], for which the self-cleavage stood at 0.98.

Turning to GUUAACGGUCAUAGGCCAUGGAAACUAGGAGCACCAUUUCGCUGCCAGUGAAGAAAUGAACACAGAAAAUCUGGGCCAGGCAUGCAUCAAAAGAAAUAGUCUUGCGCUCAACCAGAAAGUCUGUAAUCAUUUUAAGGGUA [A63C G83U], the self-cleavage turned out to be 0.83.

Regarding GUUAACGGUCAUAGGCCAUGGAAACUAGGAGCACCAUUUCGCUGCCAGUGAAGAAAUGAACAGAGAAAAUCUGGGCCAGGCAGGCAUCAAAAGAAGUAGUCUUGCGCUCAACCAGAAAGUCUGUAAUCAUUUUAAGGGUA [A63G A96G], the self-cleavage was 1.4.

As for GUUAACGGUCAUAGGCCAUGGAAACUAGGAGCACCAUUUCGCUGCCAGUGAAGAAAUGAACAGAGAAAAUCUGGGCCAGGCAGGCAUCUAAAGAAAUAGUCUUGCGCUCAACCAGAAAGUCUGUAAUCAUUUUAAGGGUA [A63G A89U], the self-cleavage was determined as 1.13.

As for GUUAACGGUCAUAGGCCAUGGAAACUAGGAGCACCAUUUCGCUGCCAGUGAAGAAAUGAACAGAGAAAAUCUGGGCCAGGCAGGCAUCGAAAGAAAUAGUCUUGCGCUCAACCAGAAAGUCUGUAAUCAUUUUAAGGGUA [A63G A89G], the self-cleavage was 1.89.

GUUAACGGUCAUAGGCCAUGGAAACUAGGAGCACCAUUUCGCUGCCAGUGAAGAAAUGAACAGGGAAAAUCUGGGCCAGGCAGGCAUCAAAAGAAAUAGUCUUGCGCUCAACCAGAAAGUCUGUAAUCAUUUUAAGGGUA [A63G A64G]: the self-cleavage turned out to be 1.37.

For the variant GUUAACGGUCAUAGGCCAUGGAAACUAGGAGCACCAUUUCGCUGCCAGUGAAGAAAUGAACAGUGAAAAUCUGGGCCAGGCAGGCAUCAAAAGAAAUAGUCUUGCGCUCAACCAGAAAGUCUGUAAUCAUUUUAAGGGUA [A63G A64U], the self-cleavage worked out at 1.62.

Regarding GUUAACGGUCAUAGGCCAUGGAAACUAGGAGCACCAUUUCGCUGCCAGUGAAGAAAUGAACACAGAAAAUCUGGGCCAGGCAGGCAUCAAAAGAAAUAGUCUUGCGCUCAACCAGAAAGUCUGUAAUCAUUUUAAGGGUG [A63C A140G], the self-cleavage was 1.96.

Regarding GUUAACGGUCAUAGGCCAUGGAAACUAGGAGCACCAUUUCGCUGCCAGUGAAGAAAUGAACUAAGAAAAUCUGGGCCAGGCAGGCAUCAAAAGAAAUAGUCUUGCGCUCAACCAGAAAGUCUGUAAUCAUUUUAAAGGUA [A62U G136A], the self-cleavage amounted to 1.59.

In the case of GUUAACGGUCAUAGGCCAUGGAAACUAGGAGCACCAUUUCGCUGCCAGUGAAGAAAUGAACAGAGAAAAUCUGGGCCAGGCAGGCAUCAAAAGAAAUUGUCUUGCGCUCAACCAGAAAGUCUGUAAUCAUUUUAAGGGUA [A63G A98U], the self-cleavage is 2.55.

In the case of GUUAACGGUCAUAGGCCAUGGAAACUAGGAGCACCAUUUCGCUGCCAGUGAAGAAAUGAACUAAGAAAAUCUGGGCCAGGCAGGCAUCAAAAGAAAUAGUCUCGCGCUCAACCAGAAAGUCUGUAAUCAUUUUAAGGGUA [A62U U103C], the self-cleavage was 1.23.

Turning to GUUAACGGUCAUAGGCCAUGGAAACUAGGAGCACCAUUUCGCUGCCAGUGAAGAAAUGAACUAAGAAAAUCUGGGCCAGGCAGGCAUCAAAAGAAAUAGUCUGGCGCUCAACCAGAAAGUCUGUAAUCAUUUUAAGGGUA [A62U U103G], the self-cleavage is 0.07.

GUUAACGGUCAUAGGCCAUGGAAACUAGGAGCACCAUUUCGCUGCCAGUGAAGAAAUGAACUAAGAAAAUCUGGGCCAGGCAGGCAUCAAAAGAAACAGUCUUGCGCUCAACCAGAAAGUCUGUAAUCAUUUUAAGGGUA [A62U U97C]: the self-cleavage is 0.96.
